According to US20240068004A1 (MBRACE THERAPEUTICS, published 2024):

Experiments:
Test in all cases: alanine scan, high-throughput flow cytometry
[1] = target: T1, GRP78 alanine scanning variant R261A (human, UniProt P11021 19-654)
T1 construct: Member of the alanine scanning library of GRP78
Method: (§1) To characterize the binding properties of the antibodies described in Example 1 for GRP78, epitope mapping analysis was carried out by alanine scanning mutagenesis. An alanine scanning library of GRP78 was constructed. Each anti-GRP78 antibody was then screened for binding to each individual GRP78 variant, allowing identification of the target protein residues involved in antibody binding.
(§2) Binding of each test antibody to each GRP78 variant in the alanine scanning library was determined by high-throughput flow cytometry under high stringency conditions (e.g., increased pH, increased salinity, increased temperature and/or increased wash time). Also included in the experiment was a commercially-available monoclonal antibody, 1H11-1H7, which was verified to bind to the wildtype (WT) GRP78 on cells and thus determined to be a suitable positive control under these conditions (Thermo Fisher Scientific, Waltham, MA). Antibody binding to each of the GRP78 variants as measured by the fluorescence signal (raw fluorescence data minus the background), was normalized to its binding to the WT GRP78. For each GRP78 variant, such normalized binding to the test antibodies was plotted relative to that to the control antibody.

[2] = target: T2, GRP78 alanine scanning variant R279A (human, UniProt P11021 19-654)
T2 construct: Member of the alanine scanning library of GRP78
Method: as §1, §2

[3] = target: T3, GRP78 alanine scanning variant H265A (human, UniProt P11021 19-654)
T3 construct: Member of the alanine scanning library of GRP78
Method: as §1, §2

[4] = target: T4, GRP78 alanine scanning variant E329A (human, UniProt P11021 19-654)
T4 construct: Member of the alanine scanning library of GRP78
Method: as §1, §2

T1 sequence (P11021 19-654 R261A limits assumed): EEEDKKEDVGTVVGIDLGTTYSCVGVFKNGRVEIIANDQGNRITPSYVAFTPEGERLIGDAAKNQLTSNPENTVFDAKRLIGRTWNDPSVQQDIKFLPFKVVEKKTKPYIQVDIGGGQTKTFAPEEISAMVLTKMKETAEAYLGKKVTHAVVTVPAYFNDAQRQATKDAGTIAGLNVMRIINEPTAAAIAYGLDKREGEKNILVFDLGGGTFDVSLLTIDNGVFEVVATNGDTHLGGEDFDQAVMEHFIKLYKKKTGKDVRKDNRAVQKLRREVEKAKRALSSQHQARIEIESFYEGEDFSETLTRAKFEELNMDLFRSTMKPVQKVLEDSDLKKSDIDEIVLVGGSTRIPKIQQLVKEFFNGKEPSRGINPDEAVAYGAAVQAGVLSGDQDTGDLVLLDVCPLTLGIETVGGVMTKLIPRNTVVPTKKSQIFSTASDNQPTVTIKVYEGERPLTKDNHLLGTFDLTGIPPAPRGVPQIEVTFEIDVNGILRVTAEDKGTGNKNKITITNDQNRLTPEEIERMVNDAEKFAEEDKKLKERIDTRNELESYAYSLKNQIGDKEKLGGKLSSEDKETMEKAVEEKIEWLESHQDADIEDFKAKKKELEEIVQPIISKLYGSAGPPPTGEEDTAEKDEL
T3 sequence (P11021 19-654 H265A limits assumed): as the sequence (P11021 19-654 R261A limits assumed) above, with A243R, H247A counted along it
T2 sequence (P11021 19-654 R279A limits assumed): as the sequence (P11021 19-654 R261A limits assumed) above, with A243R, R261A counted along it
T4 sequence (P11021 19-654 E329A limits assumed): as the sequence (P11021 19-654 R261A limits assumed) above, with A243R, E311A counted along it

B1: anti-GRP78 antibody clone F6 (antibody, IgG1, V domains shown)
VH: QVQLQQSGPGLVKPPQTLSLTCAISGDSVSSNSAAWNWIRQSPSRGLEWLGRTYYRSKWYNDYAVSVKSRITINPDTSKNQFSLQLNSVTPEDTAVYYCARDPYYYDSSGYYYFDAFDIWGQGTMVTVSS
VL: SYELTQPHSVSVAPGQTARITCGGDNIGSKSVHWYQQRPGQAPVLVVYDDSDRPSGIPERFSGSNSENTATLTISGVEAGDEADYYCQVWDSTSHHVVFGGGTKLTVL
notes: Fully human mAb formatted as full-length IgG1; also called F6 mAb
% binding normalized to WT GRP78 [1]: < 20%
% binding normalized to WT GRP78 [2]: < 20%

B2: anti-GRP78 antibody clone B4 (antibody, IgG1, V domains shown)
VH: QVRLQESGPGLVKPSQTLSLTCTVSGGSISSGGYYWSWIRQHPGKGLEWIGYIYYSGSTYYNPSLESRVTISVDTSKNQFSLKLSSVTAADTAVYYCARYSSIDAFEIWGQGTMVTVSS
VL: SYVLTQPPSVSVAPGKTATITCGGDDIGSKSVHWYQQKPGQAPVLVVYDDGDRPSGIPERFSGSNSGNTATLAISRVEAGDEADYYCQVWDSSSDQYVFGSGTKLTVL
notes: Fully human mAb formatted as full-length IgG1; also called B4 mAb
% binding normalized to WT GRP78 [3]: < 20%
% binding normalized to WT GRP78 [1]: < 20%
% binding normalized to WT GRP78 [4]: < 20%
